A value given as a limit tells only on which side of the number the result lay.

Drawing on doi:10.1101/2020.09.10.290023, this text covers Kd and stoichiometry N for two substances.

Test [1] deals with Donor (Alexa 488)-labeled, biotinylated Avi-C-Aβ42 (Avi-D-Aβ42) (UniProt P05067). Put plainly: FRET or BRET. In general terms: BRET reads energy transfer from a luciferase to a nearby fluorophore.
Test [2] deals with Donor-labeled tetramerization domain (TD) of p53 with AviTag (Avi-D-TD). Put plainly: FRET or BRET.

By Kd is commonly meant the equilibrium constant for the complex coming apart. Read a low Kd as a tighter complex. The stoichiometry N is a count of units in the complex or per binding partner. “Acceptor (Alexa 594)-labeled C-Aβ42 (A-Aβ42) (from UniProt P05067 672-713) (peptide)”: in test [1], the Kd was found to be 240 µM and the stoichiometry N was greater than 10.
With “Acceptor-labeled tetramerization domain (TD) of p53 (TD-A) (domain or fragment)”, the stoichiometry N in test [2] was determined as 4.
